From the supplement of paper PMC5998384 come the findings set out here.

Data set [1] deals with HeLa Kyoto. The data set is described as follows: solubility in G1/S (NP-40 vs SDS abundance) (log2 ratio); higher = more soluble. The settings on record: cell cycle stage: G1/S.
For data set [2], the system named is HeLa Kyoto. The experiment in a line: melting temperature (median over replicates), in situ; higher = more thermally stable.
For data set [3], the system named is HeLa Kyoto. The experiment in a line: solubility change mitosis vs G1/S (difference of NP-40 vs SDS log2 ratios) (log2 ratio difference); higher = more soluble in mitosis.
Data set [4] relates to HeLa Kyoto. The data set is described as follows: thermal stability score vs G1/S (z-score of summed log2 fold changes over temperatures); higher = more thermally stable than in G1/S.
Where [5] appears, read: cell cycle stage: early G1 (4.5 h after nocodazole release).
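For melting temperature (median over replicates), in situ in this document: HeLa Kyoto cells synchronized by double thymidine or nocodazole block, proteins quantified by TMT10plex mass spectrometry, three independent biological replicates.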
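For solubility change mitosis vs G1/S (difference of NP-40 vs SDS log2 ratios) in this document: synchronized HeLa Kyoto cells (double thymidine block for G1/S, nocodazole release for mitosis), protein amounts in NP-40 versus SDS lysates quantified by mass spectrometry, three biological replicates.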
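For solubility in G1/S (NP-40 vs SDS abundance) in this document: HeLa Kyoto cells arrested at G1/S by double thymidine block, proteins quantified by TMT10plex mass spectrometry in mild NP-40 versus SDS extracts, three biological replicates.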
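For thermal stability score vs G1/S (z-score of summed log2 fold changes over temperatures) in this document: synchronized HeLa Kyoto cells, proteins quantified by TMT10plex mass spectrometry, three biological replicates, mitosis taken 0.5 h after nocodazole release, G1/S directly after double thymidine block.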

On to “MEPAPSEVRLAVREAIHALSSSEDGGHIFCTLESLKRYLGEMEPPALPREKEEFASAHFSPVLRCLASRLSPAWLELLPHGRLEELWASFFLEGPADQAFLVLMETIEGAAGPSFRLMKMARLLARFLREGRLAVLMEAQCRQQTQPGFILLRETLLGKVVALPDHLGNRLQQENLAEFFPQNYFRLLGEEVVRVLQAVVDSLQGGLDSSVSFVSQVLGKACVHGRQQEILGVLVPRLAALTQGSYLHQRVCWRLVEQVPDRAMEAVLTGLVEAALGPEVLSRLLGNLVVKNKKAQFVMTQKLLFLQSRLTTPMLQSLLGHLAMDSQRRPLLLQVLKELLETWGSSSAIRHTPLPQQRHVSKAVLICLAQLGEPELRDSRDELLASMMAGVKCRLDSSLPPVRRLGMIVAEVVSARIHPEGPPLKFQYEEDELSLELLALASPQPAGDGASEAGTSLVPATAEPPAETPAEIVDGGVPQAQLAGSDSDLDSDDEFVPYDMSGDRELKSSKAPAYVRDCVEALTTSEDIERWEAALRALEGLVYRSPTATREVSVELAKVLLHLEEKTCVVGFAGLRQRALVAVTVTDPAPVADYLTSQFYALNYSLRQRMDILDVLTLAAQELSRPGCLGRTPQPGSPSPNTPCLPEAAVSQPGSAVASDWRVVVEERIRSKTQRLSKGGPRQGPAGSPSRFNSVAGHFFFPLLQRFDRPLVTFDLLGEDQLVLGRLAHTLGALMCLAVNTTVAVAMGKALLEFVWALRFHIDAYVRQGLLSAVSSVLLSLPAARLLEDLMDELLEARSWLADVAEKDPDEDCRTLALRALLLLQRLKNRLLPPASP [TELO2]”, for which the “solubility in G1/S (log2)” value in data set [1] is -0.341. Further, the melting temperature in data set [2] (cell cycle stage: G1/S) came to 48.8 °C; in data set [2] (cell cycle stage: mitosis), 49.1 °C. In addition, the “solubility change mitosis (log2)” value in data set [3] is -0.103. Moreover, the thermal stability score in data set [4] (setting [5]) was -0.195; in data set [4] (cell cycle stage: mitosis), 0.325.
“MEPATAPRPDMAPELTPEEEQATKQFLEEINKWTVQYNVSPLSWNVAVKFLMARKFDVLRAIELFHSYRETRRKEGIVKLKPHEEPLRSEILSGKFTILNVRDPTGASIALFTARLHHPHKSVQHVVLQALFYLLDRAVDSFETQRNGLVFIYDMCGSNYANFELDLGKKVLNLLKGAFPARLKKVLIVGAPIWFRVPYSIISLLLKDKVRERIQILKTSEVTQHLPRECLPENLGGYVKIDLATWNFQFLPQVNGHPDPFDEIILFSLPPALDWDSVHVPGPHAMTIQELVDYVNARQKQGIYEEYEDIRRENPVGTFHCSMSPGNLEKNRYGDVPCLDQTRVKLTKRSGHTQTDYINASFMDGYKQKNAYIGTQGPLENTYRDFWLMVWEQKVLVIVMTTRFEEGGRRKCGQYWPLEKDSRIRFGFLTVTNLGVENMNHYKKTTLEIHNTEERQKRQVTHFQFLSWPDYGVPSSAASLIDFLRVVRNQQSLAVSNMGARSKGQCPEPPIVVHCSAGIGRTGTFCSLDICLAQLEELGTLNVFQTVSRMRTQRAFSIQTPEQYYFCYKAILEFAEKEGMVSSGQNLLAVESQ [PTPN9]”: the “solubility in G1/S (log2)” value in data set [1] is -0.0379. Besides, the values for the melting temperature in data set [2] (cell cycle stage: G1/S) and in data set [2] (cell cycle stage: mitosis) were 51.1 °C and 51.7 °C, respectively. Also, the “solubility change mitosis (log2)” value in data set [3] was -0.094. The thermal stability score was 1.02 in data set [4] (setting [5]) and -0.717 in data set [4] (cell cycle stage: mitosis).
With “MEPFTNDRLQLPRNMIENSMFEEEPDVVDLAKEPCLHPLEPDEVEYEPRGSRLLVRGLGEHEMEEDEEDYESSAKLLGMSFMNRSSGLRNSATGYRQSPDGACSVPSARTMVVCAFVIVVAVSVIMVIYLLPRCTFTKEGCHKKNQSIGLIQPFATNGKLFPWAQIRLPTAVVPLRYELSLHPNLTSMTFRGSVTISVQALQVTWNIILHSTGHNISRVTFMSAVSSQEKQAEILEYAYHGQIAIVAPEALLAGHNYTLKIEYSANISSSYYGFYGFSYTDESNEKKYFAATQFEPLAARSAFPCFDEPAFKATFIIKIIRDEQYTALSNMPKKSSVVLDDGLVQDEFSESVKMSTYLVAFIVGEMKNLSQDVNGTLVSIYAVPEKIGQVHYALETTVKLLEFFQNYFEIQYPLKKLDLVAIPDFEAGAMENWGLLTFREETLLYDSNTSSMADRKLVTKIIAHELAHQWFGNLVTMKWWNDLWLNEGFATFMEYFSLEKIFKELSSYEDFLDARFKTMKKDSLNSSHPISSSVQSSEQIEEMFDSLSYFKGSSLLLMLKTYLSEDVFQHAVVLYLHNHSYASIQSDDLWDSFNEVTNQTLDVKRMMKTWTLQKGFPLVTVQKKGKELFIQQERFFLNMKPEIQPSDTSYLWHIPLSYVTEGRNYSKYQSVSLLDKKSGVINLTEEVLWVKVNINMNGYYIVHYADDDWEALIHQLKINPYVLSDKDRANLINNIFELAGLGKVPLKRAFDLINYLGNENHTAPITEALFQTDLIYNLLEKLGYMDLASRLVTRVFKLLQNQIQQQTWTDEGTPSMRELRSALLEFACTHNLGNCSTTAMKLFDDWMASNGTQSLPTDVMTTVFKVGAKTDKGWSFLLGKYISIGSEAEKNKILEALASSEDVRKLYWLMKSSLNGDNFRTQKLSFIIRTVGRHFPGHLLAWDFVKENWNKLVQKFPLGSYTIQNIVAGSTYLFSTKTHLSEVQAFFENQSEATFRLRCVQEALEVIQLNIQWMEKNLKSLTWWL [LNPEP]”, in data set [1], the “solubility in G1/S (log2)” value was found to be 0.198. Moreover, the melting temperature in data set [2] (cell cycle stage: G1/S) stood at 56.8 °C; in data set [2] (cell cycle stage: mitosis) it was 57.1 °C. In addition, the “solubility change mitosis (log2)” value in data set [3] is -0.15. The thermal stability score in data set [4] (setting [5]) and in data set [4] (cell cycle stage: mitosis) was -1.44 throughout.
Regarding “MEPGPDGPAASGPAAIREGWFRETCSLWPGQALSLQVEQLLHHRRSRYQDILVFRSKTYGNVLVLDGVIQCTERDEFSYQEMIANLPLCSHPNPRKVLIIGGGDGGVLREVVKHPSVESVVQCEIDEDVIQVSKKFLPGMAIGYSSSKLTLHVGDGFEFMKQNQDAFDVIITDSSDPMGPAESLFKESYYQLMKTALKEDGVLCCQGECQWLHLDLIKEMRQFCQSLFPVVAYAYCTIPTYPSGQIGFMLCSKNPSTNFQEPVQPLTQQQVAQMQLKYYNSDVHRAAFVLPEFARKALNDVS [SRM]”, in data set [1], the “solubility in G1/S (log2)” value was found to be 0.283. The melting temperature in data set [2] (cell cycle stage: G1/S) came to 51.8 °C; in data set [2] (cell cycle stage: mitosis), 51.9 °C. In addition, in data set [3], the “solubility change mitosis (log2)” value is -0.232. Further, the results for the thermal stability score in data set [4] (setting [5]) and in data set [4] (cell cycle stage: mitosis) were 0.149 and 0.82, respectively.
